{"source": "FireProtDB (doi:10.1006/jmbi.1995.0323)", "parents": {"B1": {"name": "Subtilisin inhibitor, P01006 (parent)", "chain": "MRNTGAGPSPSVSRPPPSAAPLSGAALAAPGDAPSALYAPSALVLTVGKGVSATTAAPERAVTLTCAPGPSGTHPAAGSACADLAAVGGDLNALTRGEDVMCPMVYDPVLLTVDGVWQGKRVSYERVFSNECEMNAHGSSVFAF"}}, "variants_of": "B1", "settings": "Streptomyces albogriseolus, Thermal, DSC, reversible: yes, structure 3SSI, whole UniProt chain shown", "key": {"[1]": {"settings": "pH 3.2, 53.36 °C, glycine 25 mM"}, "[2]": {"settings": "pH 7, 82.21 °C, Sodium phosphate 25 mM"}}}
{"variant": "M134L", "values": [{"measurement": "ddG of mutation (higher = less stable)", "setting": "[1]", "result": -0.77, "unit": "kcal/mol"}, {"measurement": "unfolding free energy", "setting": "[1]", "result": 6.32, "unit": "kcal/mol"}, {"measurement": "ddG of mutation (higher = less stable)", "setting": "[2]", "result": -0.15, "unit": "kcal/mol"}, {"measurement": "unfolding free energy", "setting": "[2]", "result": 6.18, "unit": "kcal/mol"}, {"measurement": "Tm", "setting": "pH 7, Sodium phosphate 25 mM", "result": 82.5, "unit": "°C"}, {"measurement": "change of melting temperature, mutant - wild type (higher = more stable)", "setting": "pH 7, Sodium phosphate 25 mM", "result": 0.3, "unit": "°C"}, {"measurement": "unfolding enthalpy (calorimetric)", "setting": "pH 7, Sodium phosphate 25 mM", "result": 182, "unit": "kcal/mol"}, {"measurement": "ddG of mutation (higher = less stable)", "setting": "pH 9.5, 80.7 °C, glycine 25 mM", "result": 0.29, "unit": "kcal/mol"}, {"measurement": "unfolding free energy", "setting": "pH 9.5, 80.7 °C, glycine 25 mM", "result": 5.75, "unit": "kcal/mol"}, {"measurement": "Tm", "setting": "pH 9.5, glycine 25 mM", "result": 80.2, "unit": "°C"}, {"measurement": "change of melting temperature, mutant - wild type (higher = more stable)", "setting": "pH 9.5, glycine 25 mM", "result": -0.48, "unit": "°C"}, {"measurement": "unfolding enthalpy (calorimetric)", "setting": "pH 9.5, glycine 25 mM", "result": 178, "unit": "kcal/mol"}]}
{"variant": "M134A", "values": [{"measurement": "ddG of mutation (higher = less stable)", "setting": "[1]", "result": 1.35, "unit": "kcal/mol"}, {"measurement": "unfolding free energy", "setting": "[1]", "result": 4.2, "unit": "kcal/mol"}, {"measurement": "Tm", "setting": "pH 3.2, glycine 25 mM", "result": 49.3, "unit": "°C"}, {"measurement": "change of melting temperature, mutant - wild type (higher = more stable)", "setting": "pH 3.2, glycine 25 mM", "result": -4.1, "unit": "°C"}, {"measurement": "unfolding enthalpy (calorimetric)", "setting": "pH 3.2, glycine 25 mM", "result": 113, "unit": "kcal/mol"}, {"measurement": "ddG of mutation (higher = less stable)", "setting": "[2]", "result": 2.32, "unit": "kcal/mol"}, {"measurement": "unfolding free energy", "setting": "[2]", "result": 3.71, "unit": "kcal/mol"}, {"measurement": "Tm", "setting": "pH 9.5, glycine 25 mM", "result": 75.5, "unit": "°C"}, {"measurement": "change of melting temperature, mutant - wild type (higher = more stable)", "setting": "pH 9.5, glycine 25 mM", "result": -5.18, "unit": "°C"}, {"measurement": "unfolding enthalpy (calorimetric)", "setting": "pH 9.5, glycine 25 mM", "result": 193, "unit": "kcal/mol"}]}
{"variant": "M134I", "values": [{"measurement": "Tm", "setting": "pH 3.2, glycine 25 mM", "result": 46.1, "unit": "°C"}, {"measurement": "change of melting temperature, mutant - wild type (higher = more stable)", "setting": "pH 3.2, glycine 25 mM", "result": -7.3, "unit": "°C"}, {"measurement": "unfolding enthalpy (calorimetric)", "setting": "pH 3.2, glycine 25 mM", "result": 98.8, "unit": "kcal/mol"}, {"measurement": "ddG of mutation (higher = less stable)", "setting": "[2]", "result": 1.89, "unit": "kcal/mol"}, {"measurement": "unfolding free energy", "setting": "[2]", "result": 4.14, "unit": "kcal/mol"}, {"measurement": "Tm", "setting": "pH 7, Sodium phosphate 25 mM", "result": 78.3, "unit": "°C"}, {"measurement": "change of melting temperature, mutant - wild type (higher = more stable)", "setting": "pH 7, Sodium phosphate 25 mM", "result": -3.9, "unit": "°C"}, {"measurement": "unfolding enthalpy (calorimetric)", "setting": "pH 7, Sodium phosphate 25 mM", "result": 179, "unit": "kcal/mol"}, {"measurement": "ddG of mutation (higher = less stable)", "setting": "pH 9.5, 80.7 °C, glycine 25 mM", "result": 2.29, "unit": "kcal/mol"}, {"measurement": "unfolding free energy", "setting": "pH 9.5, 80.7 °C, glycine 25 mM", "result": 3.75, "unit": "kcal/mol"}, {"measurement": "Tm", "setting": "pH 9.5, glycine 25 mM", "result": 75.9, "unit": "°C"}, {"measurement": "change of melting temperature, mutant - wild type (higher = more stable)", "setting": "pH 9.5, glycine 25 mM", "result": -4.8, "unit": "°C"}, {"measurement": "unfolding enthalpy (calorimetric)", "setting": "pH 9.5, glycine 25 mM", "result": 175, "unit": "kcal/mol"}]}
{"variant": "M134V", "values": [{"measurement": "ddG of mutation (higher = less stable)", "setting": "[1]", "result": 1.35, "unit": "kcal/mol"}, {"measurement": "unfolding free energy", "setting": "[1]", "result": 4.2, "unit": "kcal/mol"}, {"measurement": "Tm", "setting": "pH 3.2, glycine 25 mM", "result": 49.1, "unit": "°C"}, {"measurement": "change of melting temperature, mutant - wild type (higher = more stable)", "setting": "pH 3.2, glycine 25 mM", "result": -4.3, "unit": "°C"}, {"measurement": "unfolding enthalpy (calorimetric)", "setting": "pH 3.2, glycine 25 mM", "result": 107, "unit": "kcal/mol"}, {"measurement": "ddG of mutation (higher = less stable)", "setting": "[2]", "result": 1.84, "unit": "kcal/mol"}, {"measurement": "unfolding free energy", "setting": "[2]", "result": 4.19, "unit": "kcal/mol"}, {"measurement": "Tm", "setting": "pH 7, Sodium phosphate 25 mM", "result": 78.6, "unit": "°C"}, {"measurement": "change of melting temperature, mutant - wild type (higher = more stable)", "setting": "pH 7, Sodium phosphate 25 mM", "result": -3.6, "unit": "°C"}, {"measurement": "unfolding enthalpy (calorimetric)", "setting": "pH 7, Sodium phosphate 25 mM", "result": 179, "unit": "kcal/mol"}, {"measurement": "ddG of mutation (higher = less stable)", "setting": "pH 9.5, 80.7 °C, glycine 25 mM", "result": 2.22, "unit": "kcal/mol"}, {"measurement": "unfolding free energy", "setting": "pH 9.5, 80.7 °C, glycine 25 mM", "result": 3.82, "unit": "kcal/mol"}, {"measurement": "Tm", "setting": "pH 9.5, glycine 25 mM", "result": 76.4, "unit": "°C"}, {"measurement": "change of melting temperature, mutant - wild type (higher = more stable)", "setting": "pH 9.5, glycine 25 mM", "result": -4.33, "unit": "°C"}, {"measurement": "unfolding enthalpy (calorimetric)", "setting": "pH 9.5, glycine 25 mM", "result": 184, "unit": "kcal/mol"}]}
{"variant": "M134G", "values": [{"measurement": "Tm", "setting": "pH 7, Sodium phosphate 25 mM", "result": 68.6, "unit": "°C"}, {"measurement": "change of melting temperature, mutant - wild type (higher = more stable)", "setting": "pH 7, Sodium phosphate 25 mM", "result": -13.6, "unit": "°C"}, {"measurement": "unfolding enthalpy (calorimetric)", "setting": "pH 7, Sodium phosphate 25 mM", "result": 191, "unit": "kcal/mol"}, {"measurement": "Tm", "setting": "pH 9.5, glycine 25 mM", "result": 66.3, "unit": "°C"}, {"measurement": "change of melting temperature, mutant - wild type (higher = more stable)", "setting": "pH 9.5, glycine 25 mM", "result": -14.4, "unit": "°C"}, {"measurement": "unfolding enthalpy (calorimetric)", "setting": "pH 9.5, glycine 25 mM", "result": 187, "unit": "kcal/mol"}]}
